Assay [1] addresses Fructose 1,6-bisphosphatase II from Francisella tularensis (glpX gene product) (Francisella tularensis). As to the kind of experiment: SEC.
For assay [2] the target is unchanged. As to the kind of experiment: SEC. The source holds these as a separate data set.

Where two headings read alike, the source gives them in different places.

“Fructose 1,6-bisphosphatase II from Francisella tularensis (glpX gene product) (enzyme)”: the results for the stoichiometry N in assay [1] and in assay [2] were 2 and 4, respectively.

(Values after PMC5698383 (Applied Biochemistry and Biotechnology, 2017).)
